Measured values published in the nanobody polyreactivity screen of Harvey et al. (2022).

Assay: yeast display, Sf9 membrane polyspecificity reagent, FACS + sequencing; frameworks hold sequencing errors
How it was run: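 In a synthetic yeast display library (Saccharomyces cerevisiae BJ5465), nanobody expression was induced with galactose for 36–48 hours. FACS gates were set low and high (top ~1%) using anti-HA fluorescence for expression and streptavidin fluorescence for binding of the Sf9 membrane reagent. Each polyreactivity label is drawn from the gate of origin.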

Sequence | polyreactivity (PSR sort gate)
QVQLVESGGGLVQAGGSLRLSCAASGSIFGRNAMGWYRQAPGKERELVAAITWSGDSTYYADSVKGRFTISRDNAKNSVYLQMNSLKPEVTAVYYCAVKSYVPYLSYIYSFGYWGQGTQVTVSS | low polyreactivity
QVQLVDSGGGLVQAGGSLRLSCAASGFILYFNAMGWYRQAHGKERELVAAISRGDGSTYADSVKGRFTISRDNAKNTVYLQMNSLKAQDTAVYYCNAGLGVVVTHYVGYGYDSWGQGTQVTVSS | low polyreactivity
QVQLVESGGGLVQAGGSLRLSCAASGRTIRHNAMGWYRQAPGKERELVAAISRSGGSTYYADSVKGRFTISRDNAKNTVYLQMNSLKPEDTAVYYCAAGYHIIYTPEYYYWGQGTQVTVSS | high polyreactivity
QVQLVESGGGLVQAGGSLRLSCAASGIIFYKYAMGSYRQSPWKERELVAVISRGGGSTYYADSVKGRFTISRDNAKNTVYLQMNSLKPEDTAVYYFAADPRVTRSYTYDYWGQGTQVTVSS | high polyreactivity
QVQLVESGGGLVQAGGSLRLSCAASGRTFSAYAMGWYRQAPGKERELVATISRSGGRTYYADSVKGRFTISRDNAKNTVYLQMNSLKPEDTAVYYCNARILRDNQGTYDYWGQGTQVTVSS | high polyreactivity
QVQLVESGGGLVQAGGSLRLSCAASGRTFAYNAMGWYRQAPGKERELVAGITGGNSRTYYADSVKGRFTISRDNAKNTVYLQMNSLKPEDTAVYYCARRFYKGTSKTNLFDYWGQGTQVTVSS | high polyreactivity
QVQLVESGGGLVQSGGSLRLSCAASGRIFVPNAMGWYRQAPGKERELVAAITGSGGSTYADSVKGRFTISRDNAKNTVYLQMNSLNPEDTAVYYCAKKTWYSYYWGQGTQVTVSS | high polyreactivity
QVQLVESGGGLVQAGGSLRLSCAASGITFSSYAMGWYRQAPGKERELVAGITRRGGITYYADSVKGRFTISRDNAKNTVYLQMNSLKPEDTAVYYCAATHRFRTGSPDGGYGYWGQGTQVTVSS | high polyreactivity
QVQLVESGGGLVQAGGSLRLSCAASGITFDGYAMGWYRQAPGKESELVAGISWSGARSYYADSVKGRFTISRDNAKYTVYLHMNSLKPEDTAVYYCNKVSLRNHGGYDYWGQGTQVTVSS | high polyreactivity
QVQLVESGGGLVQAGGSLRLSCAASGSISAGNAMGWYRQAPGKERELVAAISISAGRTYYADSVKGRFTISRDNAKNTVYLQMNSLKPEDTAVYYCNAYSSYIKYDYWGQGTQVTVSS | high polyreactivity
QVQLVESGGGLVQAGGSLRLSCAASGSTFDWYAMGWYRQATGKETELVAAISWSDTSTYYADSVKGRFTISRDNAKNTVYLKMNSLKPEDTAVYYCNDEALYYYDSYDYWGQGTQVTVSS | high polyreactivity
QVQLVESGGGLVQAGGSLRLSCAASGSIFWVNAMGWYRQAPGKERELVAAITWSAGSTYYADSVKGRFTISRDNAKNTVYLQMNSLKPEDTAVYYCAAGGAWYYWTLDYWGQGTQVTVSS | low polyreactivity
QVQHVESGGGLVQAGGSLRLSCADSGSTLRGNAMGWYRQAPGKEREMVAAISIGSRTNYADSVKGRFTISRDNAKNTDYLQMNSLKPEDTAVYYCAKDISLRVRGPYYFGFDYWGQGTQVTVSS | low polyreactivity
QVQLVESGGGLVQAGGSLRLSCAASGSIFVSNARVWYRQAPGKERELVAANTSSGSTDYADSVKGRFTISRANAKNTVYLQMNSLKPEDTAVYYCAAESYHTFFLWSLNDSWGQGTQVTVSS | low polyreactivity
QVQHVESGGGLVQAGGSLRLSCAASGTTFYSYAMGWYRQAPGKERELVAAISWRTSSTYYADSVKGRFTISRDNAKNTVYLQMNSLKPEDTAVYYCAAETWLGSWRQVGMDYWGQGTQVTVSS | high polyreactivity
QVQLVESGGRLVQAGGSLRLSCAASAITFGHNAMGWYRQAPGKGRELVATISTRGGSTYADSVKGRFTISRDNAKNTVYLQMNSLKPEDTAVYYCAAPAGGYVPYFYEFDYWGQGTQVTVSS | low polyreactivity

Sequence | polyreactivity (PSR sort gate)
QDQLVESGGGLVQAGGSLRLSCAAYGSTFERYVMGWYRQAPGKDRELVADINSGGSTNYADSVKGRFTISRDNAKNTVYLQMNSLKPEDTAVYYCAKDGWGGWWFPYRVKYGYWGQGSQVTVSS | low polyreactivity
QVQLVESGGGLVQAGGSLRLSCAASGFTFTKYDMGWYRQAPGKERELVAVITWSGGSTYYADSVKGRFTISRDNAKNTVYLQMNSLKPEDTAVYYCNDEAPRYTYGRMDYWGQGTQVTVSS | low polyreactivity
QVQLVESGGGLVQAGGSLRLSCAASGSTFRYNAMGWYRQAPGTERELVAAINWSGSSTYYADSVKGRFTISRDNAKKTVYLQMNSLKPEDTAVYYCAAERPWYTKWGEYWGQGTQVTVSS | high polyreactivity
QVQLVESGGGLVQAGGSLRLSCAASGLIFARNVMGWYRQAPGKERELVAAISWSSGSTYYADSVKGRFTISRDNAKNTVSLQMNTLKQEDTAVYYCAARKIKSSQYFPTLYYYWGQGTQVTVSS | high polyreactivity
QVQLVESGGGSVQAGGSLRLSCAASGRTFVRYAMGWYRQAPGKERELVAAITWSGGSTYYADSVKGRFTISRDNAKNTVYLQMNSLKPEDTAVFNCADYPVQWGSLYDYWGQGTQVTVSS | high polyreactivity
QVHLVESAGGLVQAGGSLRLSCDASGRTFYPNAMGWYRQKHGQERELVAGIRSSGESTYYEDSVKGRFTISRDNAKTTVYLQMNSLKQEDTAVYYGIRDLTPSYDFWGQGSQVTVSS | low polyreactivity
QVQLVESGGGLVHAGGSLRLSCAASGRTFDIYAMGWYRQAPGKERELVAAISSGGSTYYADSVKGRFRISRDNAKKTVYLQKNSLKPEDTAVYYCAVRWYDQVSRRGIGYYWGQGTQVTVSS | low polyreactivity
QVQLVESRGGLVQAGGSLRLSCAAYGFTFPNNAMGWNRQAPGKERELVAAITWSGRSTYADSVKGRFTISRDNAKNTVYLQMNSLKPEDTAVDYCYTRGTYLSKTLPSAYDYWGQGTQVIVSS | low polyreactivity
QVQLVESGGGLVQAGGSLRLSCAASGLTLHGNAMGWYSQAPGKERGLVATITSSGGSTFYADSVKGRFTISRDNAKNTVSLQMNSLKPEDTAVFYCNADAPYSDDYYVRFDYWGQGTQVTVSS | low polyreactivity
QVQLVESGGGLVQAGGSLRLSCAASGITFTGYAMVWYRQAPGKERELVAAIRGGGNTYYADSVKGRFTISRDNAKNTVYLQMNSLKPEDTAVYYCAADDIAHQYFVSTVDVGMDYWGQGTQVTVSS | low polyreactivity
QVQLVESGGGLVQAGGSLRLSCAASGFIFYPYAMGWYRQAPGKERELVAAITGSGGSTYYADSVKGRFTISRDNAKNTVYLQMNSLKPEDTAVYYCAAYYGPRKMDYWGQGTQVTVSS | high polyreactivity
QVPLVESGGGLVQAGGSLRLSCAASGGIFYSYAMGWYRQAPGKERELVPAIRTNGGTTYYADSVKGRFTISRDNAKNTVYLQLNSLKQEDTAVYYCDALPGSYYDRGEYDYWGQGTQVTVSS | low polyreactivity
QVQLVESGGGLVQAGGSLRLSCAASGFSFVYYAMGWYRQAPGKERELVATISGNGGRTYYADSVKGRFTISRDNAKNTVYLQMNSLKPEDTAVYYCAALLYIRSVGYDYWGQGTQVTVSS | low polyreactivity
QVQLVESGGGLVQAGGSLRLSCAASGRIFQYNVMGWYRKAPGKERELVASISDGVGTNYADSVKGRFTISRDNAKNTVYLQMNSLKPEDTAVYYCARDLDPGYQYTGPYDYWGQGTQVTVSS | low polyreactivity
QVQLVESGGGLVQAGGSLRLSCAASGRTFFPNAMGWYRQAPGKERELVAAISSGGSTYYADSVKGRFTISRDNAKNTVYLQMNSLKPEDTAVYYCAVYGFYSKYGYWGQGTQVTVSS | high polyreactivity
